{
  "source": "patent US20200199204A1",
  "about": "(UNITED STATES OF AMERICA AS REPRESENTED BY THE SECRETARY …, published 2020)",
  "binders": {"B1": {"name": "CAP256-VRC26.25 (antibody, V domains shown)", "VH": "QVQLVESGGGVVQPGTSLRLSCAASQFRFDGYGMHWVRQAPGKGLEWVASISHDGIKKYHAEKVWGRFTISRDNSKNTLYLQMNSLRPEDTALYYCAKDLREDECEEWWSDYYDFGKQLPCAKSRGGLVGIADNWGQGTMVTVSS", "VL": "QSVLTQPPSVSAAPGQKVTISCSGNTSNIGNNFVSWYQQRPGRAPQLLIYETDKRPSGIPDRFSASKSGTSGTLAITGLQTGDEADYYCATWAASLSSARVFGTGTQVIVLG"}},
  "experiment_in_all_cases": "cell-based or functional assay",
  "key": {"HIV-1 Env of CAP256.PI": {"target": "HIV-1 Env of CAP256.PI (HIV-1)"}, "HIV-1 Env of CAP256.SU": {"target": "HIV-1 Env of CAP256.SU (HIV-1)"}, "HIV-1 Env of 96ZM651.02": {"target": "HIV-1 Env of 96ZM651.02 (HIV-1)"}, "HIV-1 Env of CAP210.E8": {"target": "HIV-1 Env of CAP210.E8 (HIV-1)"}, "HIV-1 Env of CAP244.D3": {"target": "HIV-1 Env of CAP244.D3 (HIV-1)"}, "HIV-1 Env of DU156.12": {"target": "HIV-1 Env of DU156.12 (HIV-1)"}, "HIV-1 Env of DU172.17": {"target": "HIV-1 Env of DU172.17 (HIV-1)"}, "HIV-1 Env of DU422.01": {"target": "HIV-1 Env of DU422.01 (HIV-1)"}, "HIV-1 Env of ZM109.4": {"target": "HIV-1 Env of ZM109.4 (HIV-1)"}, "HIV-1 Env of ZM135.10a": {"target": "HIV-1 Env of ZM135.10a (HIV-1)"}, "HIV-1 Env of ZM197.7": {"target": "HIV-1 Env of ZM197.7 (HIV-1)"}, "HIV-1 Env of ZM214.15": {"target": "HIV-1 Env of ZM214.15 (HIV-1)"}, "HIV-1 Env of ZM249.1": {"target": "HIV-1 Env of ZM249.1 (HIV-1)"}, "HIV-1 Env of 0260.v5.c36": {"target": "HIV-1 Env of 0260.v5.c36 (HIV-1)"}, "HIV-1 Env of BG505.w6m": {"target": "HIV-1 Env of BG505.w6m (HIV-1)"}, "HIV-1 Env of KER2008.12": {"target": "HIV-1 Env of KER2008.12 (HIV-1)"}, "HIV-1 Env of MB201": {"target": "HIV-1 Env of MB201 (HIV-1)"}, "HIV-1 Env of MB539.2B7": {"target": "HIV-1 Env of MB539.2B7 (HIV-1)"}, "HIV-1 Env of Q168.a2": {"target": "HIV-1 Env of Q168.a2 (HIV-1)"}, "HIV-1 Env of Q23.17": {"target": "HIV-1 Env of Q23.17 (HIV-1)"}, "HIV-1 Env of Q259.d2.17": {"target": "HIV-1 Env of Q259.d2.17 (HIV-1)"}, "HIV-1 Env of Q461.e2": {"target": "HIV-1 Env of Q461.e2 (HIV-1)"}, "HIV-1 Env of Q769.d22": {"target": "HIV-1 Env of Q769.d22 (HIV-1)"}, "HIV-1 Env of Q842.d12": {"target": "HIV-1 Env of Q842.d12 (HIV-1)"}, "HIV-1 Env of RW020.2": {"target": "HIV-1 Env of RW020.2 (HIV-1)"}, "HIV-1 Env of UG037.8": {"target": "HIV-1 Env of UG037.8 (HIV-1)"}, "HIV-1 Env of 6535.3": {"target": "HIV-1 Env of 6535.3 (HIV-1)"}, "HIV-1 Env of AC10.29": {"target": "HIV-1 Env of AC10.29 (HIV-1)"}, "HIV-1 Env of CAAN.A2": {"target": "HIV-1 Env of CAAN.A2 (HIV-1)"}, "HIV-1 Env of PVO.04": {"target": "HIV-1 Env of PVO.04 (HIV-1)"}, "HIV-1 Env of QH0692.42": {"target": "HIV-1 Env of QH0692.42 (HIV-1)"}, "HIV-1 Env of REJO.67": {"target": "HIV-1 Env of REJO.67 (HIV-1)"}, "HIV-1 Env of RHPA.7": {"target": "HIV-1 Env of RHPA.7 (HIV-1)"}, "HIV-1 Env of SC422.8": {"target": "HIV-1 Env of SC422.8 (HIV-1)"}, "HIV-1 Env of THRO.18": {"target": "HIV-1 Env of THRO.18 (HIV-1)"}, "HIV-1 Env of TRJO.58": {"target": "HIV-1 Env of TRJO.58 (HIV-1)"}, "HIV-1 Env of TRO.11": {"target": "HIV-1 Env of TRO.11 (HIV-1)"}, "HIV-1 Env of WITO.33": {"target": "HIV-1 Env of WITO.33 (HIV-1)"}, "HIV-1 Env of 6405.v4.c34": {"target": "HIV-1 Env of 6405.v4.c34 (HIV-1)"}, "HIV-1 Env of C1080.c3": {"target": "HIV-1 Env of C1080.c3 (HIV-1)"}, "HIV-1 Env of CM244.ec1": {"target": "HIV-1 Env of CM244.ec1 (HIV-1)"}, "HIV-1 Env of CNE3": {"target": "HIV-1 Env of CNE3 (HIV-1)"}, "HIV-1 Env of TH976.17": {"target": "HIV-1 Env of TH976.17 (HIV-1)"}, "Env of SIVmac251.30": {"target": "Env of SIVmac251.30 (SIV (SIVmac251))"}},
  "data": [
    {"binder": "B1", "values": [
      {"measurement": "IC50 (neutralization, TZM-bl)", "setting": "HIV-1 Env of CAP256.PI", "value": 1.33, "unit": "mg/L"},
      {"measurement": "IC50 (neutralization, TZM-bl)", "setting": "HIV-1 Env of CAP256.SU", "value": 0.001, "unit": "mg/L"},
      {"measurement": "IC50 (neutralization, TZM-bl)", "setting": "HIV-1 Env of 96ZM651.02", "value": 0.173, "unit": "mg/L"},
      {"measurement": "IC50 (neutralization, TZM-bl)", "setting": "HIV-1 Env of CAP210.E8", "value": 0.001, "unit": "mg/L"},
      {"measurement": "IC50 (neutralization, TZM-bl)", "setting": "HIV-1 Env of CAP244.D3", "value": "> 50", "unit": "mg/L"},
      {"measurement": "IC50 (neutralization, TZM-bl)", "setting": "HIV-1 Env of DU156.12", "value": 0.002, "unit": "mg/L"},
      {"measurement": "IC50 (neutralization, TZM-bl)", "setting": "HIV-1 Env of DU172.17", "value": "> 50", "unit": "mg/L"},
      {"measurement": "IC50 (neutralization, TZM-bl)", "setting": "HIV-1 Env of DU422.01", "value": 0.003, "unit": "mg/L"},
      {"measurement": "IC50 (neutralization, TZM-bl)", "setting": "HIV-1 Env of ZM109.4", "value": 0.001, "unit": "mg/L"},
      {"measurement": "IC50 (neutralization, TZM-bl)", "setting": "HIV-1 Env of ZM135.10a", "value": "> 50", "unit": "mg/L"},
      {"measurement": "IC50 (neutralization, TZM-bl)", "setting": "HIV-1 Env of ZM197.7", "value": 0.002, "unit": "mg/L"},
      {"measurement": "IC50 (neutralization, TZM-bl)", "setting": "HIV-1 Env of ZM214.15", "value": 0.006, "unit": "mg/L"},
      {"measurement": "IC50 (neutralization, TZM-bl)", "setting": "HIV-1 Env of ZM249.1", "value": 0.001, "unit": "mg/L"},
      {"measurement": "IC50 (neutralization, TZM-bl)", "setting": "HIV-1 Env of 0260.v5.c36", "value": 6.54, "unit": "mg/L"},
      {"measurement": "IC50 (neutralization, TZM-bl)", "setting": "HIV-1 Env of BG505.w6m", "value": 0.001, "unit": "mg/L"},
      {"measurement": "IC50 (neutralization, TZM-bl)", "setting": "HIV-1 Env of KER2008.12", "value": 0.005, "unit": "mg/L"},
      {"measurement": "IC50 (neutralization, TZM-bl)", "setting": "HIV-1 Env of MB201", "value": "> 50", "unit": "mg/L"},
      {"measurement": "IC50 (neutralization, TZM-bl)", "setting": "HIV-1 Env of MB539.2B7", "value": 0.186, "unit": "mg/L"},
      {"measurement": "IC50 (neutralization, TZM-bl)", "setting": "HIV-1 Env of Q168.a2", "value": 0.001, "unit": "mg/L"},
      {"measurement": "IC50 (neutralization, TZM-bl)", "setting": "HIV-1 Env of Q23.17", "value": 0.001, "unit": "mg/L"},
      {"measurement": "IC50 (neutralization, TZM-bl)", "setting": "HIV-1 Env of Q259.d2.17", "value": 0.002, "unit": "mg/L"},
      {"measurement": "IC50 (neutralization, TZM-bl)", "setting": "HIV-1 Env of Q461.e2", "value": 0.007, "unit": "mg/L"},
      {"measurement": "IC50 (neutralization, TZM-bl)", "setting": "HIV-1 Env of Q769.d22", "value": "> 50", "unit": "mg/L"},
      {"measurement": "IC50 (neutralization, TZM-bl)", "setting": "HIV-1 Env of Q842.d12", "value": 0.005, "unit": "mg/L"},
      {"measurement": "IC50 (neutralization, TZM-bl)", "setting": "HIV-1 Env of RW020.2", "value": "> 50", "unit": "mg/L"},
      {"measurement": "IC50 (neutralization, TZM-bl)", "setting": "HIV-1 Env of UG037.8", "value": "> 50", "unit": "mg/L"},
      {"measurement": "IC50 (neutralization, TZM-bl)", "setting": "HIV-1 Env of 6535.3", "value": "> 50", "unit": "mg/L"},
      {"measurement": "IC50 (neutralization, TZM-bl)", "setting": "HIV-1 Env of AC10.29", "value": 0.077, "unit": "mg/L"},
      {"measurement": "IC50 (neutralization, TZM-bl)", "setting": "HIV-1 Env of CAAN.A2", "value": "> 50", "unit": "mg/L"},
      {"measurement": "IC50 (neutralization, TZM-bl)", "setting": "HIV-1 Env of PVO.04", "value": 0.072, "unit": "mg/L"},
      {"measurement": "IC50 (neutralization, TZM-bl)", "setting": "HIV-1 Env of QH0692.42", "value": "> 50", "unit": "mg/L"},
      {"measurement": "IC50 (neutralization, TZM-bl)", "setting": "HIV-1 Env of REJO.67", "value": "> 50", "unit": "mg/L"},
      {"measurement": "IC50 (neutralization, TZM-bl)", "setting": "HIV-1 Env of RHPA.7", "value": "> 50", "unit": "mg/L"},
      {"measurement": "IC50 (neutralization, TZM-bl)", "setting": "HIV-1 Env of SC422.8", "value": 47.2, "unit": "mg/L"},
      {"measurement": "IC50 (neutralization, TZM-bl)", "setting": "HIV-1 Env of THRO.18", "value": 19.8, "unit": "mg/L"},
      {"measurement": "IC50 (neutralization, TZM-bl)", "setting": "HIV-1 Env of TRJO.58", "value": "> 50", "unit": "mg/L"},
      {"measurement": "IC50 (neutralization, TZM-bl)", "setting": "HIV-1 Env of TRO.11", "value": "> 50", "unit": "mg/L"},
      {"measurement": "IC50 (neutralization, TZM-bl)", "setting": "HIV-1 Env of WITO.33", "value": "> 50", "unit": "mg/L"},
      {"measurement": "IC50 (neutralization, TZM-bl)", "setting": "HIV-1 Env of 6405.v4.c34", "value": "> 50", "unit": "mg/L"},
      {"measurement": "IC50 (neutralization, TZM-bl)", "setting": "HIV-1 Env of C1080.c3", "value": 0.004, "unit": "mg/L"},
      {"measurement": "IC50 (neutralization, TZM-bl)", "setting": "HIV-1 Env of CM244.ec1", "value": 0.092, "unit": "mg/L"},
      {"measurement": "IC50 (neutralization, TZM-bl)", "setting": "HIV-1 Env of CNE3", "value": "> 50", "unit": "mg/L"},
      {"measurement": "IC50 (neutralization, TZM-bl)", "setting": "HIV-1 Env of TH976.17", "value": 0.106, "unit": "mg/L"},
      {"measurement": "IC50 (neutralization, TZM-bl)", "setting": "Env of SIVmac251.30", "value": "> 50", "unit": "mg/L"}
    ]}
  ]
}
